In US20250352661A1 (MYTHIC THERAPEUTICS, published 2025):

T1: LRRC15 on the surface of LRRC15+ cells (SAOS-2, U87MG) (UniProt Q8TF66 22-581, limits assumed)
T1 sequence (looked up): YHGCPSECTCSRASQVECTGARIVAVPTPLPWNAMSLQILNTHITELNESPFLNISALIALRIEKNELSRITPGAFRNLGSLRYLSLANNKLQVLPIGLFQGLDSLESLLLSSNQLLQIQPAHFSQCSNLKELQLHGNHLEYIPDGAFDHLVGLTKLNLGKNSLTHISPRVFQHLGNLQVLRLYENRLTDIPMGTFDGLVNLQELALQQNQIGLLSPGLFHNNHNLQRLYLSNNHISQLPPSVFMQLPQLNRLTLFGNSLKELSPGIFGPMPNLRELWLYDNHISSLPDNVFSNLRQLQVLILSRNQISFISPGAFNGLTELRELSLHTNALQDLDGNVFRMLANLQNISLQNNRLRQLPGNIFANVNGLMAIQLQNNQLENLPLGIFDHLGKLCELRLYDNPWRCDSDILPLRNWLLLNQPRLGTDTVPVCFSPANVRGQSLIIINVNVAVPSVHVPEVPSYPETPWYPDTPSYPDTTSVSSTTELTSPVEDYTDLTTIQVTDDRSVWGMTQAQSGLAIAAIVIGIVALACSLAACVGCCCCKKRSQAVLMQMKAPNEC

T2: Human LRRC15 Protein, His Tag (Acro Biosystems) (human, UniProt Q8TF66 22-538, limits assumed)
T2 construct: not shown: His tag
T2 sequence (looked up): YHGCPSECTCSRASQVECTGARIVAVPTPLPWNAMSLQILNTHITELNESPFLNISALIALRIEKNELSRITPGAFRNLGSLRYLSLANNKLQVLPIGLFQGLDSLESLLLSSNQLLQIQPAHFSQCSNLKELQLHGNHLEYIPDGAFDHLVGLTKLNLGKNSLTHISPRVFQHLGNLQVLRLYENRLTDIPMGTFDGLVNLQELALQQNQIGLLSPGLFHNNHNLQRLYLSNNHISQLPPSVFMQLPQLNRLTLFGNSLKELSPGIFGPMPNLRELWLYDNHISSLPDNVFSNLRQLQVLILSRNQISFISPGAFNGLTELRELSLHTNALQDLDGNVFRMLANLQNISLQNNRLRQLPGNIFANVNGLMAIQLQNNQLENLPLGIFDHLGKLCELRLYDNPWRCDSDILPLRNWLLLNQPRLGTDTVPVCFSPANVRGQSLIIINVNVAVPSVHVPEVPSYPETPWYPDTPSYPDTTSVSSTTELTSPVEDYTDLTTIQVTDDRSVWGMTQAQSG


Assays:
[1] = target: T1, LRRC15 on the surface of LRRC15+ cells …; assay: cell-based or functional assay
[2] = target: T1, LRRC15 on the surface of LRRC15+ cells …; assay: cell-based or functional assay; remark: listed apart in the source
[3] = target: T1, LRRC15 on the surface of LRRC15+ cells …; assay: cell-based or functional assay; remark: listed apart in the source
[4] = target: T2, Human LRRC15 Protein, His Tag (Acro …); assay: BLI; dissociation pH 7.4 black, pH 5.4 grey [2/2); D00026 FIG. 6B (2/2]
[5] = target: T1, LRRC15 on the surface of LRRC15+ cells …; assay: cell-based or functional assay; remark: listed apart in the source

Binder | Cytotoxicity against SAOS-2 cells, Fold over MYT5438 (mAb complexed with MMAF-conjugated secondary antibody, CTG assay) [1] [fold over MYT5438] | Internalization in U87MG cells (10 nM, 24 hours), FOB = fold over background (IgG control) [2] | Internalization in U87MG cells (10 nM, 24 hours), FOS = fold over samrotamab [2] [fold over samrotamab] | Internalization in SAOS-2 cells (10 nM, 24 hours), FOB = fold over background (IgG control) [3] | Internalization in SAOS-2 cells (10 nM, 24 hours), FOS = fold over samrotamab [3] [fold over samrotamab] | binding result [4] | 20 nM Efficacy (cytotoxicity of candidates against SAOS-2 cells) [5]
MYT8094 (antibody, IgG1, V domains shown) VH: EVQLVESGGGLVQPGGSLRLSCTASGFSFSSSHWICWVRQAPGKGLEWVGCIYAGSIGSTYYASWAKGRFTISRDTSKNTVYLQMNSLRAEDTAVYYCARAPNDIYNYYFNLWGQGTLVTVSS VL: EIVMTQSPSTLSASVGDRVIITCQASENIYNYLAWYQQKPGKAPKLLIYYASTLASGVPSRFSGSGSGAEFTLTISSLQPDDFATYYCQSGYVSKSSTFGQGTKLTVL | 1.45 | 3.52 fold over background (IgG control) | 2.94 | 3.15 fold over background (IgG control) | 1.32 | – | –
MYT9716 (antibody, V domains shown, also called hu29F1 VH P102E) VH: EVQLVESGGGLVQPGGSLRLSCTASGFSFSSSHWICWVRQAPGKGLEWVGCIYAGSIGSTYYASWAKGRFTISRDTSKNTVYLQMNSLRAEDTAVYYCARAENDIYNYYFNLWGQGTLVTVSS VL: EIVMTQSPSTLSASVGDRVIITCQASENIYNYLAWYQQKPGKAPKLLIYYASTLASGVPSRFSGSGSGAEFTLTISSLQPDDFATYYCQSGYVSKSSTFGQGTKLTVL | – | – | – | – | – | binds | –
MYT9521 (antibody, V domains shown) VH: EVQLVESGGGLVQPGGSLRLSCTASGFSFSSSHWICWVRQAPGKGLEWVGCIYAGSIGSTYYASWAKGRFTISRDTSKNTVYLQMNSLRAEDTAVYYCARAPNDIYNYYFNLWGQGTLVTVSS VL: EIVMTQSPSTLSASVGDRVIITCQASENIYNYLAWYQQKPGKAPKLLIYYASDLASGVPSRFSGSGSGAEFTLTISSLQPDDFATYYCQSGYVSKSSTFGQGTKLTVL | 1.49 | 3.42 fold over background (IgG control) | 2.82 | 3.02 fold over background (IgG control) | 1.24 | – | –
MYT9731 (antibody, V domains shown) VH: EVQLVESGGGLVQPGGSLRLSCTASGFSFSSSHWICWVRQAPGKGLEWVGCIYAGSIGSTYYASWAKGRFTISRDTSKNTVYLQMNSLRAEDTAVYYCARAPNDIYNYYFNLWGQGTLVTVSS VL: EIVMTQSPSTLSASVGDRVIITCQASEEIYNYLAWYQQKPGKAPKLLIYYASTLASGVPSRFSGSGSGAEFTLTISSLQPDDFATYYCQSGYVSKSSTFGQGTKLTVL | 1.05 | – | – | – | – | – | –
MYT9722 (antibody, V domains shown, also called hu29F1 VH Y108E) VH: EVQLVESGGGLVQPGGSLRLSCTASGFSFSSSHWICWVRQAPGKGLEWVGCIYAGSIGSTYYASWAKGRFTISRDTSKNTVYLQMNSLRAEDTAVYYCARAPNDIYNEYFNLWGQGTLVTVSS VL: EIVMTQSPSTLSASVGDRVIITCQASENIYNYLAWYQQKPGKAPKLLIYYASTLASGVPSRFSGSGSGAEFTLTISSLQPDDFATYYCQSGYVSKSSTFGQGTKLTVL | – | – | – | – | – | binds | –
MYT8391 (antibody, V domains shown) VH: EVQLVESGGGLVQPGGSLRLSCTASGLDFRRTNYICWVRQAPGKGLEWVGCIYIADVVHYYASWAKGRFTFSRDTSKNTVYLQMNSLRAEDTAVYYCARGADGGFHYGMDLWGQGTLVTVSS VL: EIVMTQSPSTLSASVGDRVIITCQASQSIGNYLSWYQQKPGKAPKRLIYSASTLPSGVPSRFSGSGSGAEFTLTISSLQPDDFATYYCQNNYWLAGYGHPFGQGTKLTVL | 1.14 | 3.13 fold over background (IgG control) | 2.49 | 2.94 fold over background (IgG control) | 1.2 | – | –
MYT8416 (antibody, V domains shown) VH: EVQLVESGGGLVQPGGSLRLSCTASGLDFRRTNYICWVRQAPGKGLEWVGCIYIADVVHYYASWAKGRFTFSRDTSKNTVYLQMNSLRAEDTAVYYCARGADGGFVYGMDLWGQGTLVTVSS VL: EIVMTQSPSTLSASVGDRVIITCQASQSIGNYLSWYQQKPGKAPKRLIYSASTLPSGVPSRFSGSGSGAEFTLTISSLQPDDFATYYCQNNYHLAGYGHPFGQGTKLTVL | 1.13 | 3.05 fold over background (IgG control) | 2.39 | 2.71 fold over background (IgG control) | 1.05 | – | –
MYT8417-c-ADC (antibody, human IgG1, kappa, V domains shown, vcMMAE conjugated to the cysteine at position 205 of the light chain) VH: EVQLVESGGGLVQPGGSLRLSCTASGLDFRRTNYICWVRQAPGKGLEWVGCIYIADVVHYYASWAKGRFTFSRDTSKNTVYLQMNSLRAEDTAVYYCARGADGGFVYGMDLWGQGTLVTVSS VL: EIVMTQSPSTLSASVGDRVIITCQASQSIGNYLSWYQQKPGKAPKRLIYSASTLPSGVPSRFSGSGSGAEFTLTISSLQPDDFATYYCQNNYWLAHYGHPFGQGTKLTVLR | – | – | – | – | – | – | 42.5
MYT8415-c-ADC (antibody, human IgG1, kappa, V domains shown, vcMMAE conjugated to the cysteine at position 205 of the light chain) VH: EVQLVESGGGLVQPGGSLRLSCTASGLDFRRTNYICWVRQAPGKGLEWVGCIYIADVVHYYASWAKGRFTFSRDTSKNTVYLQMNSLRAEDTAVYYCARGADGGFVYGMDLWGQGTLVTVSS VL: EIVMTQSPSTLSASVGDRVIITCQASQSIGNYLSWYQQKPGKAPKRLIYSASTLPSGVPSRFSGSGSGAEFTLTISSLQPDDFATYYCQNNHWLAGYGHPFGQGTKLTVLR | – | – | – | – | – | – | 38.7
MYT8500 (antibody, V domains shown) VH: EVQLVESGGGLVQPGGSLRLSCTASGFSFSGSYWICWVRQAPGKGLEWVGCINGGSHDITYYASWAKGRFTISRDTSKNTVYLQKTSLRAEDTAVYYCASDTSYTAYGNFYFNLWGQGTLVTVSS VL: EIVMTQSPSPLSASVGDRVIITCQSSQSVLNNNWLAWYQQKPGKAPKLLIYDASSLASGVPSRFSGSGSGAEFTLTISSLQPDDFATYYCQGEFSCGSADCNAFGQGTKLTVL | 1.06 | 2.65 fold over background (IgG control) | 1.93 | 2.68 fold over background (IgG control) | 1.03 | – | –
MYT9776-c-ADC (antibody, human IgG1, kappa, V domains shown, vcMMAE conjugated to the cysteine at position 205 of the light chain) VH: EVQLVESGGGLVQPGGSLRLSCTASGFSFSGHYWICWVRQAPGKGLEWVGCIHGGSHDITYYASWAKGRFTISRDTSKNTVYLQKTSLRAEDTAVYYCASDTSYTAYGNFYFNLWGQGTLVTVSS VL: EIVMTQSPSPLSASVGDRVIITCQSSQSVLNNNWLAWYQQKPGKAPKLLIYDASSLASGVPSRFSGSGSGAEFTLTISSLQPDDFATYYCQGEFSCGSADCNAFGQGTKLEIKR | – | – | – | – | – | – | 66.3
MYT8483-c-ADC (antibody, human IgG1, kappa, V domains shown, vcMMAE conjugated to the cysteine at position 205 of the light chain) VH: EVQLVESGGGLVQPGGSLRLSCTASGFSFSGSYWICWVRQAPGKGLEWVGCINGGSLDITYYASWAKGRFTISRDTSKNTVYLQKTSLRAEDTAVYYCASDTSYTAYGNFYFNLWGQGTLVTVSS VL: EIVMTQSPSPLSASVGDRVIITCQSSQSVLNNNWLAWYQQKPGKAPKLLIYDASSLASGVPSRFSGSGSGAEFTLTISSLQPDDFATYYCQGEFSCGSADCNAFGQGTKLTVLR | – | – | – | – | – | – | 29.4
